Seven molecules from patent publication US20200131274A1 (CRESCENDO BIOLOGICS, published 2020) can be followed below.

The target of experiment [1] is T1, recombinant human PSMA (R&D, cat. no. 4234-ZN) (human, UniProt Q04609 44-750).
T1 construct: Bought protein; also called rhPSMA; Recombinant PMSA
Description: Octet RED384 BLI, PSMA on sensor, VH purified from periplasmic extracts. Background: Biolayer interferometry detects binding as a change in optical thickness at a sensor tip.

Experiment [2] has as its target T2, cynomolgus PSMA, full-length, on CHO cells (cynomolgus, UniProt A0A2K5VNZ0 1-750). Description: cell-based or functional assay.
The target in experiment [3] is T3, human prostate specific membrane antigen (PSMA), full-length, on cells (human, UniProt Q04609 1-750).
T3 construct: also called huPSMA; human PSMA
Description: FMAT cell binding, huPSMA CHO 1A10 cells, after 7 days in human serum at 37 C.

Experiment [4] has as its target T2, cynomolgus PSMA, full-length, on CHO …. Description: FMAT direct cell binding, CHO cyno PSMA cells.
The target in experiment [5] is T3, human prostate specific membrane …. Description: FMAT cell binding, huPSMA CHO 1A10 cells, after 4 days in human serum at 37 C.
For experiment [6] the target is unchanged. Description: cell-based or functional assay.
The target in experiment [7] is T2, cynomolgus PSMA, full-length, on CHO …. Description: cell-based or functional assay. This is another data set of the same source.
The target in experiment [8] is T3, human prostate specific membrane …. Description: cell-based or functional assay. The source holds these as a separate data set.
Experiment [9] deals with T1, recombinant human PSMA (R&D, cat. no. …). Description: Octet RED384 BLI, PSMA on sensor, Table 21 c; Table 21 part c), not part b) (0.85 nM for clone 1.8).
The target is the same in experiment [10]. Description: Octet RED384 BLI, PSMA on sensor, Table 21 b.
Experiment [11] has the same target. Description: Octet RED384 BLI, PSMA on sensor, Table 21 c.
The target in experiment [12] is T3, human prostate specific membrane …. Description: FMAT cell binding, huPSMA CHO 1A10 cells, after 0 days in human serum at 37 C.
Experiment [13] shares this target. Description: FMAT direct cell binding, DU145 PSMA cells.
The target is the same in experiment [14]. Description: FMAT cell binding, huPSMA CHO 1A10 cells, after 1 day in human serum at 37 C.
Experiment [15] shares this target. Description: FMAT direct cell binding, CHO human PSMA cells.
The target in experiment [16] is T1, recombinant human PSMA (R&D, cat. no. …). Description: Octet RED384 BLI, PSMA on sensor, VH series from 0.375 ug/ml.
For experiment [17], the target named is T3, human prostate specific membrane …. Description: FMAT direct cell binding, LNCap cells.
The target of experiment [18] is T1, recombinant human PSMA (R&D, cat. no. …). Description: Octet RED384 BLI, PSMA amine-coupled to sensor, 1:1 model.
Experiment [19] shares this target. Description: HTRF binding assay: His-Myc tagged VH, 3 nM biotinylated PSMA, streptavidin cryptate and anti-Myc Alexa Fluor 647; VH kept 0-7 days at 37 °C in cynomolgus monkey serum; Delta F% binding signal. A general note: TR-FRET usually uses a lanthanide donor and a delayed reading to cut background.
Experiment [20] addresses T3, human prostate specific membrane …. Description: FMAT cell binding, huPSMA CHO 1A10 cells, after 4 days in human serum at 37 C. The source holds these as a separate data set.
The target is the same in experiment [21]. Description: FMAT cell binding, huPSMA CHO 1A10 cells, after 7 days in human serum at 37 C. This is another data set of the same source.
Experiment [22] has the same target. Description: FMAT cell binding, huPSMA CHO 1A10 cells, after 1 day in human serum at 37 C. This is another data set of the same source.
Experiment [23] has the same target. Description: cell-based or functional assay. The source holds these as a separate data set.
The target in experiment [24] is T2, cynomolgus PSMA, full-length, on CHO …. Description: cell-based or functional assay. The source holds these as a separate data set.
For experiment [25] the target is unchanged. Description: FMAT direct binding on CHO cells expressing cynomolgus PSMA, VH kept 8 days at 40 °C, FL2 median mean fluorescence.
Experiment [26] addresses T3, human prostate specific membrane …. Description: FMAT cell binding, huPSMA CHO 1A10 cells, after 0 days in human serum at 37 C. The source holds these as a separate data set.
Experiment [27] deals with T1, recombinant human PSMA (R&D, cat. no. …). Description: Octet RED384 BLI, PSMA on sensor, VH series from 0.375 ug/ml. The source holds these as a separate data set.
The target in experiment [28] is T2, cynomolgus PSMA, full-length, on CHO …. Description: FMAT Mirrorball direct cell binding, purified His-tagged VH titrated on CHO cells expressing cynomolgus PSMA, FL2 median binding signal [panel cynoPSMA-CHO binding].
The target is the same in experiment [29]. Description: FMAT direct binding on CHO cells expressing cynomolgus PSMA, VH not heated (4 °C, day 0), FL2 median mean fluorescence.
In experiment [30] the target is T3, human prostate specific membrane …. Description: FMAT Mirrorball direct cell binding, purified His-tagged VH titrated on LNCap cells, FL2 median binding signal [panel LNCap cell binding].
The target is the same in experiment [31]. Description: FMAT Mirrorball direct cell binding, purified His-tagged VH titrated on CHO cells expressing human PSMA, FL2 median binding signal [panel huPSMA-CHO binding].

Numbering of substitutions follows the chain as printed. Several values for one entry are separate records, joined by “and”; a condition that tells them apart may be missing. Identical values can stand only once.

T1 sequence (Q04609 44-750 limits assumed): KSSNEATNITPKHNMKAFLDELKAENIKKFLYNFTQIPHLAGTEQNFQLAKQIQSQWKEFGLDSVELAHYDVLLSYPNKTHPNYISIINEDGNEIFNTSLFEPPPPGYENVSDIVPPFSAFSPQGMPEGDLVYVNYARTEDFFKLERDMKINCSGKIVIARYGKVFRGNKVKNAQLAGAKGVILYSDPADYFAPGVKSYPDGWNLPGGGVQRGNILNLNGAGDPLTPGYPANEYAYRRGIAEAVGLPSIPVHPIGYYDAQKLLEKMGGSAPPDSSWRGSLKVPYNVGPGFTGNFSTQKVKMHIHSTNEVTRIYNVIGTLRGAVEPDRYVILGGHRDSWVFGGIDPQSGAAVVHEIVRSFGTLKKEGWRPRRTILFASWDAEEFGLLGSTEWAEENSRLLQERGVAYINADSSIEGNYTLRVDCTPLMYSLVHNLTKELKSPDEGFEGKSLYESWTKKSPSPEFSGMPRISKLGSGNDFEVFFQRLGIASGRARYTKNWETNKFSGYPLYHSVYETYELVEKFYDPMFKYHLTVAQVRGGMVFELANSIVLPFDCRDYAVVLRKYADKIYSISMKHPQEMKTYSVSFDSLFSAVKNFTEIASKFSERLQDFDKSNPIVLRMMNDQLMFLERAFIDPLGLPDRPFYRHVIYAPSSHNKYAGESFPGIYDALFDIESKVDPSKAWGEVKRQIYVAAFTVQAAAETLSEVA
T3 sequence (Q04609 whole entry): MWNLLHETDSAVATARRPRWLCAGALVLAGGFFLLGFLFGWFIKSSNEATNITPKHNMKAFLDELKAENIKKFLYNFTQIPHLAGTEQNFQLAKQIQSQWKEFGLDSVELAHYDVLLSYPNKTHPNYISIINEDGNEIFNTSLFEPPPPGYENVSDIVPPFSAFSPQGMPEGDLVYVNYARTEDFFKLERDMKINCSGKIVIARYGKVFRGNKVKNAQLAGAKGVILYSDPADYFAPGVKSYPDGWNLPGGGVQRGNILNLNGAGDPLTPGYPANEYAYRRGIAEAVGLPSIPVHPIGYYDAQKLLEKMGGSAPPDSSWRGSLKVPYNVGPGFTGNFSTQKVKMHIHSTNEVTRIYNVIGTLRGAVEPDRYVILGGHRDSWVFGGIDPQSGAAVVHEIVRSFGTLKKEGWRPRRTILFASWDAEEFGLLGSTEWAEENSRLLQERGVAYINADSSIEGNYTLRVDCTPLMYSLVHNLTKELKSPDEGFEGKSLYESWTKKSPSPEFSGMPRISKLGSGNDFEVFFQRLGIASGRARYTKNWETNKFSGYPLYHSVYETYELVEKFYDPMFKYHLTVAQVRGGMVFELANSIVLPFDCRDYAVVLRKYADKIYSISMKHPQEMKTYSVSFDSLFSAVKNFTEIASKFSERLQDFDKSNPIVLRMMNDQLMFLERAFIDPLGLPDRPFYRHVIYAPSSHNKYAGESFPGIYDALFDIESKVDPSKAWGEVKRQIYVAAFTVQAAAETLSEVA

B1: single VH domain antibody 5.1 (VHH)
VHH: QVQLVESGGGVVQPGRSLRLSCAASGFTFNNYGMHWVRQAPGKGLEWVAIISYDGNTKYYTDSVKGRFTISRDNSKNTLYLQMNSLRVEDTAVYYCAKGLWPSDVWGQGTTVTVSS
notes: Human single VH domain antibody (Humabody); purified via the C-terminal His-tag, residues not tied
As a reminder, the Kd is the constant that tells how readily two partners part at equilibrium. For orientation: koff means the rate constant with which the complex falls apart. For B1, in experiment [1], the Kd turned out to be 30 nM and the koff amounted to 0.0091 s⁻¹. The “EC50 (read off the curve): pHrodo Green internalisation signal FL2, CHO cells expressing cynomolgus PSMA” value in [2] is about 2e-09 M.

B2: single VH domain antibody 1.8 (VHH)
VHH: EVQLLESGGGLVQPGGSLRLSCAASGFSFSSYAMSWVRQAPGKGLEWVSSIGENDGTTDYADSVKGRFTISRDNSKNTLYLQMNSLRVEDTAVYYCVKDGVHWGQGTLVTVSS
notes: Human single VH domain antibody (Humabody)
What is called EC50 is the concentration that produces a half-maximal response. On to B2, for which the EC50 in experiment [3] was 0.542 nM and 0.27 nM; in experiment [4], 0.31 nM; in [5], 0.496 nM and 0.25 nM; in experiment [12], 0.409 nM and 0.17 nM; in [13], 0.0945 nM; in experiment [14] it was 0.486 nM and 0.22 nM. The EC50 in [15] was found to be 0.103 nM; in experiment [17], 0.147 nM. Besides, in [6], the “His-ZAP cell killing, human PSMA Average EC50” value is 0.026 nM and 0.04 nM. Moreover, the “His-ZAP cell killing, cyno PSMA EC50” value in experiment [7] stood at 1.4 nM. Besides, the “pHrodo Green internalization assay, human PSMA Average EC50 (M)” value (“pHrodo Green internalization assay” for short) in [8] is 5e-10 M and 1.2e-09 M. Moreover, the Kd in experiment [9] turned out to be 1.95 nM; in experiment [10], 0.85 nM; in experiment [16] it was 1.95 nM. Besides, the koff was determined as 0.00068 s⁻¹ in [10], 0.00104 s⁻¹ in experiment [11] and 0.00104 s⁻¹ in experiment [16].

B3: single VH domain antibody 2.1 (VHH)
VHH: EVQLVESGGGVVQPGRSLRLSCAASGFSFSGYGMHWVRQAPGKGLEWVAYISYDGSNKYYADSVKGRFTISRDNSKNTLYLQMNSLRAEDTAVYYCAKDPAWGLRLGESSSYDFDIWGQGTMVTVSS
notes: Human single VH domain antibody (Humabody); tested with a C-terminal His tag; 71-95; also called VH 2.1; VH2.1
By EC50 (read off the curve) is commonly meant the midpoint of the concentration-response curve. B3: the Kd in experiment [18] was 1.64 nM; in experiment [27] it was 0.32 nM. The figures for the off-rate constant (koff) in experiment [18] and in experiment [27] were 0.000456 s⁻¹ and 0.000228 s⁻¹, respectively. The concentration for a half-maximal effect (EC50) in experiment [4] came out at 0.367 nM; in experiment [20], 0.26 nM; in experiment [21], 0.301 nM; in [22], 0.254 nM; in experiment [13], 0.23 nM; in [15] it was 0.11 nM. In addition, the concentration giving a half-maximal response (EC50) was 0.249 nM in [26] and 0.0607 nM in experiment [17]. Moreover, the half-maximal effective concentration (EC50 (read off the curve)) in experiment [19] is about 1 nM; in [25], about 2 nM; in [28] it was about 0.6 nM; in [29], about 2 nM. The “His-ZAP cell killing, human PSMA Average EC50” value in [6] was found to be 0.014 nM. The “His-ZAP cell killing, cyno PSMA EC50” value in experiment [7] was determined as 0.052 nM. Besides, the “pHrodo Green internalization assay” value in experiment [8] was 8e-10 M. For the same molecule, in experiment [23], the “IC50 (read off the curve): His-ZAP saporin cell killing, human-PSMA CHO, % Control (Cell Titer-Glo)” value was about 0.04 nM. In addition, the “IC50 (read off the curve): His-ZAP saporin cell killing, cyno-PSMA CHO, % Control (Cell Titer-Glo)” value in experiment [24] is about 0.1 nM.

B4: single VH domain antibody 2.17 (VHH)
VHH: B3 VHH with G55A, S63N
notes: Human single VH domain antibody (Humabody); C-terminal His tag, residues not tied
B4: the EC50 in experiment [4] is 0.308 nM; in experiment [20], 0.228 nM; in experiment [21] it was 0.238 nM; in experiment [22] it was 0.21 nM; in experiment [13], 0.218 nM; in experiment [15], 0.1 nM. The EC50 in [26] was determined as 0.23 nM; in experiment [17], 0.0113 nM. In addition, the “His-ZAP cell killing, human PSMA Average EC50” value in [6] stood at 0.035 nM. Besides, in [7], the “His-ZAP cell killing, cyno PSMA EC50” value amounted to 0.07 nM. Moreover, the “pHrodo Green internalization assay” value in experiment [8] was found to be 8e-10 M. Also, the Kd in [27] amounted to 0.76 nM. For the same molecule, in [27], the koff came out at 0.000726 s⁻¹.

B5: single VH domain antibody 2.22 (VHH)
VHH: B3 VHH with M34T, D62A, S63P, P100A
notes: as for B4
Turning to B5, the EC50 in [4] turned out to be 0.613 nM; in experiment [20] it was 0.34 nM; in [21], 0.328 nM; in experiment [22], 0.291 nM; in experiment [13], 0.229 nM; in experiment [15], 0.123 nM. For the same molecule, the EC50 in experiment [26] turned out to be 0.305 nM; in experiment [17], 0.153 nM. Besides, the “His-ZAP cell killing, human PSMA Average EC50” value in experiment [6] is 0.069 nM. Besides, in experiment [7], the “His-ZAP cell killing, cyno PSMA EC50” value was 0.18 nM. In addition, the “pHrodo Green internalization assay” value in experiment [8] is 6.7e-10 M. In addition, in experiment [27], the Kd amounted to 2.62 nM. For the same molecule, in [27], the koff is 0.00244 s⁻¹.

B6: 2.10 (VHH)
VHH: B3 VHH with S28T, K58R, N77K, Y80S
notes: On the sheet it is the filled up triangle; also called single VH domain antibody 2.10
Turning to B6, the half-maximal effective concentration (EC50 (read off the curve)) in experiment [28] was about 1 nM.

B7: single VH domain antibody 3.1 (VHH)
VHH: EVQLVESGGGVVQPGRSLRLSCAASGFPLISYGMHWVRQAPGKGLEWVAFMTYDGSNRYYADSVKGRFTISRDNSKNTLYLQMNSLRDEDTALYYCARDRIVGGRVPDAFDIWGQGTMVTVSS
notes: Human single VH domain antibody (Humabody); C-terminal His tag, residues not tied; also called VH3.1
Turning to B7, in [18], the Kd came to 3.78 nM. The koff in experiment [18] was 0.000452 s⁻¹. In addition, the “EC50 (read off the curve)” value in [30], in [28] and in experiment [31] was about 2 nM throughout.
